Source: the nanobody polyreactivity screen of Harvey et al. (2022)

Experiment: yeast display, Sf9 membrane polyspecificity reagent, FACS + sequencing; frameworks hold sequencing errors
Method in brief: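 A synthetic nanobody library was expressed on Saccharomyces cerevisiae BJ5465 by galactose induction for 36–48 hours. The library was stained for 1 hour at 4 °C with 10% biotinylated, detergent-solubilized Sf9 membrane reagent and enriched with streptavidin microbeads before FACS. Low and high (top ~1%) gates were set on anti-HA fluorescence for expression and streptavidin fluorescence for reagent binding, and each polyreactivity label reflects the gate of origin.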

Row | Sequence | polyreactivity (PSR sort gate)
1 | QVQLVESGGGLVQAGGSLRLSCAASGRNFYVYTMGWYRQAPGKERELVAAISWSGGSTHHADSVKGRFTISRDNAKNTVYLQMNSLKPEDTAVYYCNKGVVSRVAFEYWGQGTQVTVSS | low polyreactivity
2 | QVQLVESGGGLVQAGGSLRLSCAASGIIFSLYVMGWYRQAPGKERELVAAIRSGGSTYYADSVKGRFTISRDNAKNTVYLQMNSLKPEDTAGDYCAARVRSGTGVGFDYWGQGTQVTVSS | high polyreactivity
3 | QVQLVESGGGLLQAGGSLRLSCAASGIIIVGYAMGWYRQAPGKERELVAAISRSSGSTYYADSVKGRFTISRDNAKNTVYLQMNSLKPEDTAVYYCARYNQYYSTEDYWGQGPQVTVSS | high polyreactivity
4 | QVQLVESGGGLVQAGGRHRLTCAASGRTVGRYAMGWYRQAPGKEREFVAAISNRVGRTYYADSVKGRFTISRDNAKNTVYLQMNSLKPEDTAVYYCAADTAHVNVNYWGQGTQVTVSS | high polyreactivity
5 | QVQLVESGGGLVQAGGSLSLSCAASGSTFDYYAMGWYRQAPGKERELVADITYSGGSTYYADSVKGRFTISRDNAKNTVYLQMNSLKPEDTAVYYCNAYYTVYTRYDYWGQGTQVTVSS | high polyreactivity
6 | QVQLVESGGGLVQAGGSLRLSCAASGITFYGYAMGWYRQAPGKERELVAAISKRGGSTYYADSVKGRFTISRDNAKNTVYLQMNSLKPEDTAVYYCNARPGKSQGWRYDYWGQGTQVTVSS | high polyreactivity
7 | QVQLVESGGGLVQAGGSLRLSCAASGFTFYRYAMGWYRQAPGKERELVASISRNGGSTYYADTVKGRFTISRDTEKNTVYFLMNSLKPEDTAVYYCNTAFYPPTNFYWGQGTQVTVSS | high polyreactivity
8 | QVQLVESGGGLVQAGGSLRLSCAASGLTFYYYAMGWYRQAPGKERELVADISYSGGSTYYADSVKGRFTISRDNAKNTVYLQMNSLKPEDTAVYYCAAEGGYTISGSYDYWGQVTQVTVSS | low polyreactivity
9 | QVQLVESGGGLVQAGGSIRLSCAASGRIFYPYAMGWYRPAPGKDRELVAAIRRSGVDTYYADSVKGRFTISRDNAKQTVYLQMNSLKPEDTAVYYCAADPYWFFAHYDSWGQGTQVTVSS | low polyreactivity
10 | QVQLVESGGGLVQAGGSLRLSCAASGSTFYPYAMGWYRPAHGKERELVAAITSRVGRTYYADSVKGRFTISRDNAKNTVYLQMNSLKPEDTAVYYCAAKIFIRVHYYSYRMYYWGQGTQVTVSS | low polyreactivity
11 | QVQLVESGGGLVQAGGSLRLSCAASGGNFYLYAMGWYIQAPGKEREFVAAISSSGGSTNYADSVKGRFTFSRDNAKNTVYLQMNSLKAEDTAVYYCAARWLAFLDLGKTYEYWGQGTHVTVSS | high polyreactivity
12 | QVQRVESGGGLVQAGGSLRLSCAASGSIFSYNAMGWYRQAPGKERELVAAIRASGGDTYYADSVKGRFTISRDNAKNTVYLQMISLKPEDTAVYYCAARTYAHHYASHGYWGQGTQVTVSS | low polyreactivity
13 | QVLLVESGGGLVQAGGSLRLSCAPSGSIFDYYTMGWYRQAPGKERELVAAISSDGSTNYADSVKGRFTISRDNAKNTVYLQMNTLKPEDTAVYYCADSTYRFYYYLKRGYWGQGTKVTVSS | low polyreactivity
14 | QVQLVESGGGLVQAGGSLRLSCAASGSTFRVYAMGWYRQAPGKERELVAAISWSAGSTYYADSVKGRFTISRDNAKNTVYLQMNSLKPEDTAVYYCNADPDRYDWYTYLYLADYWGQGTQVTVSS | low polyreactivity
15 | QVQLVESGGGLVQAGGSLRLSCAASGSIFPRNAMGWYRQAPGKERELVAAITTTGGITHYADSVKGRFTISRDNAKNTVYLQMNSLKPEDTAVYYCNASYEYNAGRVETEYDYWGQGTQVTVSS | low polyreactivity
16 | QVQLVESGGGLVQAGGSLRLSCAASGIIFRNNAMGWYRQAPGKEREFVARISKRGGSTYYADSVKGRFTISRDNAKNTVYLQMNSLKPEDTAVYYCAKGYGSGSYLYDYWGQGTQVTVSS | high polyreactivity
17 | QVQLVESCGGLVQAGGSLRLSCAASGRILSSYAMGGNRQAPGKERELVADITQRGGTTYYADSVKGRFSISRDNAKNTVYLQMNRLKPEDTAVYYCNAKSYRSYGGRGGVEYDYCGQGTQVTVSS | low polyreactivity
18 | QVQLVESGGGLVQAGGSLRLSCAASGSILQSYAMGWSRQAPGKERELGAALSGSGGSTYYADSVKGRFTISRDNAKNTVYLQMNSLKPEDTAVYYCAKGPLYRTSRGEFGYWGQGTQVTVSS | low polyreactivity
19 | QVQLVETGGGLDQAGGSLRLSCAASGFTLHRNAKGWYRQAPRKERELVATNSWTGGSTYYADSVKGRFTISRDTAKNTVYLQMNSLKPEDTAVYYCAARGHWSIYGYYYLGATAFGYWGQGTQVTVSS | low polyreactivity
20 | QVQLVESGGGLVQAGGSLRLSCAASGSTFRRYAMGGYRQAPGKERELVAAISRSGGTTYYADSVKGRFTISRDNAKNTVYLQMNSLKPEDTAVYYCNARYPVVRYDYWGQGTQVTVSS | high polyreactivity
21 | QVQLVESGGGLVQAGGSLRLSCAASGYTFASYTMGWYRQAPGKERELVATISRGGGRTYYADSVKGRFTISRDNAKNTVYLQMNSLKPEDTAVYYCARPSTFYTGYRQAHFDYWGQGTQVTVSS | high polyreactivity
22 | QVQLVESGGGLVQAGGSLRLSCAASGRIFTFYAMGWYRQAPGKARELVASITGGGNTYYADSVKGRFTISRDNAKNTVYLQMNSLKPEDTAVYYCNADEWRWDEIIPYAVDYWGQGTQVTVSS | low polyreactivity

Row | Sequence | polyreactivity (PSR sort gate)
23 | QVQLVESGGGLVQAGGSLRLSCAASGSTFGGNAMGWYRQAPGKERELVAAITVGGDSTYYADSVKGRFTISRDNAKNTVYLQMNSLKPEDTAVYYCAARHYWWYDYWGQGTQVTVSS | low polyreactivity
24 | QVQLVESGGGLVQAGGSLRLSCAASGSTFYYYAMGWYRQAPGKERELVATITSGASTNYADSVKGRFTISRDNAKNTVYLQMNSLKPEDTAVYYSNAGSLTSYLPWSSYDYWGQGTQVTVSS | low polyreactivity
25 | QVQLVESGGGLVQAGGSLRLSCAASGRTFSGNARGWYRQAPGKERELVATITRRGGSTYYADSVKGRFTISRDNAKNTVYLQMNSLKPEDTAVYYCAARRVVNGGQGYESWGQGTQVTVSS | high polyreactivity
26 | QVQLVESGGGLVQAGGSLRLSCAASGGIFGLYTMGWYRQAPGKERELVAGISKRGTRTRYADSVKGRFTISRDNAKNTVYLQMNSLKPEDTAVYYCNADYYVSKLDYWGQGTQVTVSS | high polyreactivity
27 | QVQLVESGGGLVQAGGSLRLSCAASGSTFDSNDMGWSRQAPGKERELVAAITWSGGSTYYADSVKGRFTISRDNAKNTVYLQMNSLKPEDTAVYYCAATSGRAFKYDYWGQGTQVTVSS | high polyreactivity
28 | QVQLVESGGGLVQAGGSLRLSCAASGSIFTVYAMGWYRQAPGKERELVAAINWSDGDTYYADSVKGRFTISRDNAKNTVYLQMNSLKPEDTAVYYCAAEGIYLILWYGYVEYDYWGQGTQVTVSS | low polyreactivity
29 | QVQLVESGGGLVQAGGSLRLSCAASGRTFGYYAMGWYRQAPGKERELVATITWSGGSTYYADSVKGRFTISRDNAKNTVYLQMNSLKPEDTAVYYCATGQYGYWYGTENDYWGQGTQVTVSS | low polyreactivity
30 | QVQLVESGGGLVQAGGSLRLSCAASGFTFDDYTMGWYRHAPGKERELVAAITSSGDSTYYADSVKGRFTISRDNAKNTVYLQMNSLKPEDTAVYYCAAQSYPFDRDYWGQGTQVTVSS | high polyreactivity
31 | QVQLVESGRGLVQAGGSLRISCAASGRIFKNYAMGWYRQAPGKERELVADITWSDSDTSYADSVKGRFTITRDNAKNTVYLQMNCLKPEDTAVYYCAAETFDYADYIANGSAEYDYWGQGSQVTVSS | high polyreactivity
32 | QVQLVESGGGLFQAGGSLRLSCAASGFTFPAYNMGWYRQAPRKEMEMVAAITSSGGNTYYADSVKGRFTISRHNAKNTVYLQMNSLKPEDTAVYYWATFSVRWPSNDHVRYDYWGHGTQVTVSS | low polyreactivity
33 | QVQLVESGGGLVQAGGSLRLSSAASGRIFSINVMGWYRHAPGKERELVAAISKRGGSTYYADSVKGRFTISRDNAKNTVYLQMNSLKPEDTAVYYCAVDRYSTDRVKTSYGYDYWGQGTQVTVSS | high polyreactivity
34 | QVQLVESGGGLVQAGGSLRLSCAASARIFPWNAMGWYRQAPGKERELVAAITSGGGTTYYADSVKGRFTISRDNAKNTVYLQMNSLKPEDTAVYYCATPWEGSSTADYRISVYYWGQGTQVTVSS | low polyreactivity
35 | QVQLVESGGGLVQAGGSLRLSCAASGRIFISYTMGWDRQAPGKERELVAGIDSSGTSTYYADSVKGRFTISRDNAKNTVYLQMNSLKPEDTAVYYCNVDGNWKDTSTELDYWGQGTQVTVSS | low polyreactivity
36 | QVQLVESGGGLVQAGGSLSLSCAASGSSFSLYTMGWYRQAPGKERDLVASISQSGGSTYYADSVKGRFTISRDNAKNTVYLQMNSLKPEDTAVYFWNAKGRSGTLTLYYYWGQGTQVTVSS | low polyreactivity
37 | QVQLEESGGGLVQAGGSLRLSCAASGSTFDVYAMGWYRQAPGKERELVAAISRSGGSTYYADSVKGRFTISRDTAKTTVYLQMNSLQPEDTAVYYCNARLARWGSYEYNYWGQGTQVTVSS | low polyreactivity
38 | QVQIVESGGGLVQAGGILRLSCAASGRIFYTNAMGWYRKAPAKERELVAAIDNSDSTTYYADSVKWRYTISRDNAKNTVYLQMNSLKPEDTAVYYCAAESYLYTVTFEYWGQGTQVTVSS | high polyreactivity
39 | QVQLVESGGGLVQAGGSLRLSCAASGSIFSAYSMGSYRQAHGKEREFVAAISKSGSSTYYADSVKGRFTISRDNAKNTVYLQMNSLKPEDTAVYYCAAESSSYYGYYIYYYWGQGTQVTVSS | high polyreactivity
40 | QVQLVESGGGLVQAGGSIRLTCAASGSTFGKYAMGWYRQAPGKERELVARIDSGDGTYYADSLKGRFTISRDNAKNTVYLKMNSLKAEDTAVYYCAAGYGARRLTYFWPQYARYDYWGQGTQVTVSS | high polyreactivity
41 | QVQLLESGGGLVQAGGSLRLTCAASGFIFDQYGMGWYRQAPGKERELVASITSTGSTYYADSVKGRFTISRDNAKNTVYLQMNSLKPEDTAVYYCATDSYDGMDYWGHGTQVTVSS | low polyreactivity
42 | QVQLVESGGGLVQAGGSLRLSCAASGRISFRIRWDGIDRRLGKKGSWLPLLTNTGSTNYADSVKGRFTISRDNAKNTVYLQMNSLKPEDTAVYYCNADQTGGSSYPAYFEYDYWGQGTQVTVSS | low polyreactivity
43 | QVQLVESGGALVQAGGSIRISCAASGSIFRDYAMGWSRQAPGKERELVAVISIAGRTNYADSVKGRFTISRDNAKNTVYLQMKRLKPEDTAVYYCAADSAWYGYDYWGQGTQVTVSS | low polyreactivity
